Data taken from publication PMC4267838.

Target: histone deacetylase 5 (rat (endogenous in Sprague-Dawley rat cardiac myocytes))
Assay: co-IP; HDAC5 precipitated from equal amounts of cardiac myocyte nuclear extracts, 14-3-3 detected by western blotting; cells treated with vehicle, ET1 (0.1 µM), PPAR ligands (troglitazone 1 µM, fenofibrate 10 µM, GW501516 1 µM), with or without shRNA knockdown of DGKζ

Substance: 14-3-3 chaperone proteins (from UniProt P63102 1-245) (natural protein)
- percent of normalized 14-3-3 in HDAC5 precipitates of ET1-treated cells vs. vehicle-treated control (% vs. control): 138
